Measured values as given in PMC4490372, “Architecture of TFIIIC and its role in RNA polymerase III pre-initiation complex assembly” (Nature Communications, 2015).

Target: T1, τ95 (Tfc1), τA subunit of endogenous S. cerevisiae TFIIIC (S. cerevisiae, UniProt P32367 1-649)
T1 construct: τ95 (Tfc1), subunit of S. cerevisiae TFIIIC, endogenous subunit in the purified complex; source: endogenous, purified from S. cerevisiae strain SC2342 as part of TFIIIC (TAP tag on τ60)
T1 sequence (looked up): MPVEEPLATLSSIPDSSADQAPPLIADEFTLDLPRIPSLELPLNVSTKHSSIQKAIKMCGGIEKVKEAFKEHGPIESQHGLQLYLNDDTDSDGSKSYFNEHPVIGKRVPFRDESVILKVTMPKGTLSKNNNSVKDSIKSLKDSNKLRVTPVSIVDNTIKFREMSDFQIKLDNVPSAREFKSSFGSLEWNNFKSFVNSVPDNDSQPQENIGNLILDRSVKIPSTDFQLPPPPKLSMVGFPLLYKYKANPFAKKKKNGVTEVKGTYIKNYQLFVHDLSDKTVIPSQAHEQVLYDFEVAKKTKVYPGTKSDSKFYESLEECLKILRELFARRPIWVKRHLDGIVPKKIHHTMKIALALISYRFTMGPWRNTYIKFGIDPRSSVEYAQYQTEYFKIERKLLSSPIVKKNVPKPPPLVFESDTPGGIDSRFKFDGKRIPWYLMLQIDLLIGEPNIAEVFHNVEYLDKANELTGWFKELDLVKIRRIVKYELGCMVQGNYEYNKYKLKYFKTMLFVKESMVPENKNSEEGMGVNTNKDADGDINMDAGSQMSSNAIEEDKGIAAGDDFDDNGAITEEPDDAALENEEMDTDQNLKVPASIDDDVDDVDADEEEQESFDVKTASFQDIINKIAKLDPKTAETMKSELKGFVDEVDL
Assay: cross-linking; XL-MS: purified endogenous TFIIIC (30 μg, 1 μg/μl) cross-linked with H12/D12 DSS to 2 mM, 40 min at 37 °C; ld-score >25
Conditions: both partners purified

binding result: binds
B1: τ55 (Tfc7), τA subunit of endogenous S. cerevisiae TFIIIC (natural protein, UniProt Q12415 1-435, looked up)
chain: MVVNTIYIARHGYRSNWLPEGPYPDPLTGIDSDVPLAEHGVQQAKELAHYLLSLDNQPEAAFASPFYRCLETVQPIAKLLEIPVYLERGIGEWYRPDRKPVIPVPAGYEILSKFFPGVISQEWDSTLTPNEKGETEQEMYMRFKKFWPLFIERVEKEYPNVECILLVTHAASKIALGMSLLGYDNPRMSLNENGDKIRSGSCSLDKYEILKKSYDTIDETDDQTSFTYIPFSDRKWVLTMNGNTEFLSSGEEMNWNFDCVAEAGSDADIKKRQMTKKTSSPIPEADDQTEVETVYISVDIPSGNYKERTEIAKSAILQYSGLETDAPLFRIGNRLYEGSWERLVGTELAFPNAAHVHKKTAGLLSPTEENETTNAGQSKGSSTANDPNIQIQEEDVGLPDSTNTSRDHTGDKEEVQSEKIYRIKERIVLSNVRPM
notes: τ55 (Tfc7), subunit of S. cerevisiae TFIIIC, endogenous subunit in the purified complex; source: endogenous, purified from S. cerevisiae strain SC2342 as part of TFIIIC (TAP tag on τ60)
